Data as given in the supplement of paper PMC9942255.

Tested on: Bacillus subtilis DB104 (SP-AmyQ fusion secretion)
Assay: AmyQ secretion efficiency, weighted average sort bin (1 = best secretion, 10 = worst) (bin number (weighted average, 1-10)); higher = lower secretion efficiency
Procedure, shortened: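 The secretion score was taken as the read-frequency-weighted mean bin number, normalised to beads per bin, with low-abundance sequences excluded. Bins came from large-particle flow cytometry sorting of occupied alginate beads (~65 nL, about 0.3 cells each, with fluorescein-starch) into 10 equally populated groups by green/red fluorescence ratio after about 13 h at room temperature and nile red staining. The cells were a B. subtilis DB104 library with mature AmyQ fused to designed signal peptides, integrated at amyE, and each bin's amplicons were Illumina-sequenced.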

Sequence | AmyQ secretion efficiency
MRSYIKVLTMCFLGLILFVPTYLADNS | 7.74
MKSKGSIMACLILFSFTITTFINTETSSVFTPISAFSN | 6.5
MKKFLVALTMCGGLFVTPAKAVKT | 3.65
MKKKLAAGLTASAIVGTTLVVTPAEWATI | 7.78
MIAYFGKCGYKYGRTRLGVLFGMQQANHG | 8.61
MRSYIKTFNVLTMCFLGLILFVPTALADNS | 2.59
MRFTKVVGFLSVLGLAAVFPLTAQARKR | 7.26
MKKRLIAPMLLSAASLAFFAMSGSTQAAAY | 3.66
MMIKQCVICLSLLVFGTEDEEEEAHAEET | 6.81
MRNLTKTSLLLAGLCTAAQMVFVTHASLEES | 3.72
MKVCQKSIVRSTTRQRIGTFVISVPFMANAQSD | 7.4
MKLAKRVRKLTPSTTLAITAKAKEL | 8.89
MTKLKMLSMLTVMIASLFIFSSQCLAVQY | 2.27
MNLRKIRRKKKKSLGMLVSAAPVLATSS | 7.69
MLKKKWMVGLLAGCLAAGSAGFSYNAFATEN | 4.95
MKRITINIKRRKRRAAVISLTGTAEAAEK | 7.96
MKRVCLTALLSVLLVAGSVPFHAEAKKP | 2.1
MKKGIIRFLLVSFVLFFALSTGITGVQDAPA | 6.75
MKRSIFITCLLITLLTMGGMIASPASAAGT | 2.08
MKSKWMRQKRLVAVGFSFTQVMVHAGET | 8.54
MFNRLFRVCFLAALIMAFTLPNSVYRQKP | 7.13
MKKKQVMLALTAAAGLGLTALHSAPAVKAAPL | 1.99
MIKVLMAFIICLSLILSVLAAPPSGAKAESV | 1.52
MKVPKTMLLSTAAGLLLSLTVSAHYV | 5.02
MKKVLMAFIICLSLILSVLAAPPSGAKAAED | 3.24
MKKVLMAFIICLSVLAAPPSGAKAESV | 2.14
MRKKRLLTIYIMLLGLIAWFPGAAQAEEK | 3.47

Sequence | AmyQ secretion efficiency
MQNRLFRVCFLAALIMAFTLPNSVYAQKP | 1.12
MKNMSCKLVVSVTLFFSFLTIGPLIHAQNS | 1.06
MAIIIAIIAAVIVIAALITFKKRRKRNASPG | 8.46
MSGGGILALFVLSLGLLSFMVTPVSAASK | 2.53
MKKQIITATTAVVLGSTLFAGALSAQSI | 2.54
MKKWIYVVLVLSIAGIGGFSVHTASS | 6.85
MLKKKWMVGLLAGCLAAGGFSYNGFATEN | 6.08
MRSYIKVLTMCFLGLILFVPTALVDNS | 5.38
MKKLVLCVSILAVILSGVTVALTQLS | 3.8
MKKVMLATALFLGLTPDGANAADL | 4
MNKLKRLSMLTVMIASVFIFSSHALGAQY | 1.69
MGLGKKLSVAVAASFMSLSPGVQAAEG | 1.73
MKRFSTAYLLLGILCSAAVFLIGAPSRCLGAEV | 3.15
MRFTKVVGFLSVLGVFPLTAQAEKA | 5.6
MTKKAWFLPLVCVLLISGWLAPAASLSAQTT | 3.89
MRKVITCVMAASLTLGSLLPAGYATAKED | 3.88
MGMKKKYTQGSRYRALGLALVGGGTWAAFN | 7.3
MKTLRTLCVLMILSGVIFFGLKLDAKDI | 7.62
MRKSLITLGLASVIGTSSFLIPFTSKTHSAETL | 6.74
MMKKLFHSTLIVLLFFSFFGVQPIHAAED | 3.19
MKKWIYVVLVLSIAGIGGFSVHAASR | 5.28
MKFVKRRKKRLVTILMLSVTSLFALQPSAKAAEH | 2.78
MKKKRKRLAAGLTASAIVGTTLVVTPAEAATI | 2.55
MLKRTSFVSSQGQGSRTLLSILLPSGQAHAQSA | 7.6
MPVLLSALLLLLFAFEPSASGKKL | 6.19
MGLGKKLSVAVAASFMSLSISLSPGVQAAEG | 1.19
